Read-outs that look alike come from different tables or passages of the source. Each block holds one binder with its values, some of them ahead of it.
What was measured:
Experiment in all cases: BLI
[1] = target: T1, human FcRIIIB protein (MednaBio, E1037) (human, UniProt O75015 17-200)
T1 construct: Bought; also called FcγRIIIB; FcgRIIIB
Method in brief: (§1)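 On an Octet Red96 System, anti-penta-HIS biosensors loaded with commercial human Fc receptor proteins were dipped into test IgG diluted 1:3 over 8 points from 300 nM. Fcγ receptor runs used pH 7.2 and FcRn runs used pH 6. Global fitting of these biolayer interferometry data gave the values for Kd, kon and koff, using a 1:1 binding model.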

[2] = target: T2, human FcRIIIA-F158 protein (MednaBio, E1036) (human, UniProt P08637 17-208)
T2 construct: Bought; also called FcγRIIIA(F)
T2 sequence (P08637 17-208 limits assumed): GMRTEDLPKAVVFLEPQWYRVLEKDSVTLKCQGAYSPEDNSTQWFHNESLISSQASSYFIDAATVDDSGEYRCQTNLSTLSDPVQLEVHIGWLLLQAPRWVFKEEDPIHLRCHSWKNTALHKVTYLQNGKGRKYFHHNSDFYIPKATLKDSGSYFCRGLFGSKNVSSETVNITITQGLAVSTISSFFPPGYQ
Method in brief: as §1

[3] = target: T3, human FcRn protein (MednaBio, E1032) (human, UniProt P55899 24-297; P61769 21-119)
T3 construct: Bought; assays at pH 6

[4] = target: T4, human FcRIIA protein (MednaBio, E1033) (human, UniProt P12318 34-218, limits assumed)
T4 construct: Bought; also called FcγRIIA
T4 sequence (looked up): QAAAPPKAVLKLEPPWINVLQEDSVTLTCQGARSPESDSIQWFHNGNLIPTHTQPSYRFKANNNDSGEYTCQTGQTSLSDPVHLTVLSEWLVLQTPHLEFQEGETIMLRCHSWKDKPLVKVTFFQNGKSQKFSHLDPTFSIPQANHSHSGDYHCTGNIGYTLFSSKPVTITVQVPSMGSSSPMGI

[5] = target: T5, human FcRI protein (MednaBio, E1031) (human, UniProt P12314 16-288, limits assumed)
T5 construct: Bought; loaded on anti-penta-HIS biosensors; also called FcγRI
T5 sequence (P12314 16-288 limits assumed): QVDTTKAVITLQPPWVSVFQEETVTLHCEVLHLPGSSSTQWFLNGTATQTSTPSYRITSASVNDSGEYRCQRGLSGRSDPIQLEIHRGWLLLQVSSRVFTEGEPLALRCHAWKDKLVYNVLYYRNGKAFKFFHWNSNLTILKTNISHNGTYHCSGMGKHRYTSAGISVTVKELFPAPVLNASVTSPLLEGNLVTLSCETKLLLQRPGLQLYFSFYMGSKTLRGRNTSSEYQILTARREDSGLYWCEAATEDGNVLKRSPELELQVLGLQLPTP

[6] = target: T6, human FcRIIB/C protein (MednaBio, E1034) (human, UniProt P31994 43-217, limits assumed)
T6 construct: Bought as FcRIIB/C; also called FcγRIIB; CD32B
T6 sequence (looked up): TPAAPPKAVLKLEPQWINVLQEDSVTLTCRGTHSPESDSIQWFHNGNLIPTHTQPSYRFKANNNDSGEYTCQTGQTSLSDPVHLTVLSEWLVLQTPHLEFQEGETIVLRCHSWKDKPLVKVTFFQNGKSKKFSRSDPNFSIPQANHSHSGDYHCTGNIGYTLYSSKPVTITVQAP

[7] = target: T7, human FcRIIIA-V158 protein (MednaBio, E1035) (human, UniProt P08637 17-208)
T7 construct: Bought; also called FcγRIIIA(V); FcgRIIIA(V)
T7 sequence (P08637 17-208 F176V): as the sequence (P08637 17-208 limits assumed) above, with F160V counted along it

[8] = target: T1, human FcRIIIB protein (MednaBio, E1037); remark: listed apart in the source
Method in brief: as §1

[9] = target: T2, human FcRIIIA-F158 protein (MednaBio, …); remark: listed apart in the source
Method in brief: as §1

[10] = target: T1, human FcRIIIB protein (MednaBio, E1037); remark: listed apart in the source
[11] = target: T2, human FcRIIIA-F158 protein (MednaBio, …); remark: listed apart in the source
[12] = target: T3, human FcRn protein (MednaBio, E1032); remark: listed apart in the source
Method in brief: as §1

[13] = target: T4, human FcRIIA protein (MednaBio, E1033); remark: listed apart in the source
Method in brief: as §1

[14] = target: T5, human FcRI protein (MednaBio, E1031); remark: listed apart in the source
Method in brief: as §1

[15] = target: T1, human FcRIIIB protein (MednaBio, E1037); remark: listed apart in the source
Method in brief: as §1

[16] = target: T7, human FcRIIIA-V158 protein (MednaBio, …); remark: listed apart in the source
Method in brief: as §1

T1 sequence (O75015 17-200 limits assumed): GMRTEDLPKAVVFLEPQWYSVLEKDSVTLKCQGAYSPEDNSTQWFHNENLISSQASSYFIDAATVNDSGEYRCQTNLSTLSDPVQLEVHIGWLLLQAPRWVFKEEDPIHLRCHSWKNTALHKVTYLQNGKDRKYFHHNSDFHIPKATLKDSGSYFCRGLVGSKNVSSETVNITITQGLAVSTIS

- Kd [1]: 130 nM
- koff [1]: 0.027 s⁻¹
- kon [1]: 210000 M⁻¹ s⁻¹
- Kd [2]: 120 nM
- koff [2]: 0.02 s⁻¹
- kon [2]: 170000 M⁻¹ s⁻¹
- Kd [3]: 16 nM
- koff [3]: 0.008 s⁻¹
- kon [3]: 480000 M⁻¹ s⁻¹
- Kd [4]: 56 nM
- koff [4]: 0.032 s⁻¹
- kon [4]: 570000 M⁻¹ s⁻¹
- Kd [5]: 5.6 nM
- koff [5]: 0.0012 s⁻¹
- kon [5]: 220000 M⁻¹ s⁻¹
- Kd [6]: 130 nM
- koff [6]: 0.016 s⁻¹
- kon [6]: 120000 M⁻¹ s⁻¹
- Kd [7]: 60 nM
- koff [7]: 0.027 s⁻¹
- kon [7]: 450000 M⁻¹ s⁻¹
- Kd [8]: 130 nM
- koff [8]: 0.027 s⁻¹
- kon [8]: 210000 M⁻¹ s⁻¹
- Kd [9]: 120 nM
- koff [9]: 0.02 s⁻¹
- kon [9]: 170000 M⁻¹ s⁻¹
- Kd [10]: 130 nM
- koff [10]: 0.027 s⁻¹
- kon [10]: 210000 M⁻¹ s⁻¹
- Kd [11]: 120 nM
- koff [11]: 0.02 s⁻¹
- kon [11]: 170000 M⁻¹ s⁻¹
- Kd [12]: 16 nM
- koff [12]: 0.008 s⁻¹
- kon [12]: 480000 M⁻¹ s⁻¹
- Kd [13]: 56 nM
- koff [13]: 0.032 s⁻¹
- kon [13]: 570000 M⁻¹ s⁻¹
- Kd [14]: 5.6 nM
- koff [14]: 0.0012 s⁻¹
- kon [14]: 220000 M⁻¹ s⁻¹
- Kd [15]: 130 nM
- koff [15]: 0.027 s⁻¹
- kon [15]: 210000 M⁻¹ s⁻¹
- Kd [16]: 60 nM
- koff [16]: 0.027 s⁻¹
- kon [16]: 450000 M⁻¹ s⁻¹
B1: wild-type human IgG1 control (antibody)
heavy: not shown
light: SYELTQPPSVSVSPGQTASITCSGDNIGDQYAHWYQQKPGQSPVLVIYQDKNRPSGIPERFSGSNSGNTATLTISGTQAMDEADYYCATYTGFGSLAVFGGGTKLTVLGQPKAAPSVTLFPPSSEELQANKATLVCLISDFYPGAVTVAWKADSSPVKAGVETTTPSKQSNNKYAASSYLSLTPEQWKSHRSYSCQVTHEGSTVEKTVAPTECS
notes: Control IgG

- Kd [3]: 18 nM
- koff [3]: 0.012 s⁻¹
- kon [3]: 640000 M⁻¹ s⁻¹
- Kd [4]: 400 nM
- koff [4]: 0.055 s⁻¹
- kon [4]: 140000 M⁻¹ s⁻¹
- Kd [5]: 4.8 nM
- koff [5]: 0.0017 s⁻¹
- kon [5]: 360000 M⁻¹ s⁻¹
- Kd [6]: 400 nM
- koff [6]: 0.05 s⁻¹
- kon [6]: 140000 M⁻¹ s⁻¹
- Kd [7]: 550 nM
- koff [7]: 0.092 s⁻¹
- kon [7]: 170000 M⁻¹ s⁻¹
- Kd [12]: 18 nM
- koff [12]: 0.012 s⁻¹
- kon [12]: 640000 M⁻¹ s⁻¹
- Kd [13]: 400 nM
- koff [13]: 0.055 s⁻¹
- kon [13]: 140000 M⁻¹ s⁻¹
- Kd [14]: 4.8 nM
- koff [14]: 0.0017 s⁻¹
- kon [14]: 360000 M⁻¹ s⁻¹
- Kd [16]: 550 nM
- koff [16]: 0.092 s⁻¹
- kon [16]: 170000 M⁻¹ s⁻¹
B2: wild-type human IgG4 control (antibody)
heavy: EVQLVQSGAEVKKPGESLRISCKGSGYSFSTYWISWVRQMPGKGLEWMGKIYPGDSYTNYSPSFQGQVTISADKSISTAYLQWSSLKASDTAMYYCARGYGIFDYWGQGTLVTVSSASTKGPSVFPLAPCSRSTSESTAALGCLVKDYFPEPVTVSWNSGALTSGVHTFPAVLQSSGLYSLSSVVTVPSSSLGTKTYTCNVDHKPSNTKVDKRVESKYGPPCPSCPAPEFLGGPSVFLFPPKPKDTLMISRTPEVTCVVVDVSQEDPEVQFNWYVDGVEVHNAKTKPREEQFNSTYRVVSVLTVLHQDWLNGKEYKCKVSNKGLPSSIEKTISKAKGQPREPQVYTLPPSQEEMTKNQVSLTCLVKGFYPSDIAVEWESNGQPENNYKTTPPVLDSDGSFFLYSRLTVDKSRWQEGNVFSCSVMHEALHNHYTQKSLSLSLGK
light: B1 light
notes: Control IgG
